Measurements from patent publication US20190077860A1 (EISAI R AND D MANAGEMENT, published 2019).

T1: human EphB4 extracellular region-SEAP-His protein (human, UniProt P54760 16-539)
T1 construct: extracellular domain; also called hEphB4-SEAP-His
T1 sequence (looked up): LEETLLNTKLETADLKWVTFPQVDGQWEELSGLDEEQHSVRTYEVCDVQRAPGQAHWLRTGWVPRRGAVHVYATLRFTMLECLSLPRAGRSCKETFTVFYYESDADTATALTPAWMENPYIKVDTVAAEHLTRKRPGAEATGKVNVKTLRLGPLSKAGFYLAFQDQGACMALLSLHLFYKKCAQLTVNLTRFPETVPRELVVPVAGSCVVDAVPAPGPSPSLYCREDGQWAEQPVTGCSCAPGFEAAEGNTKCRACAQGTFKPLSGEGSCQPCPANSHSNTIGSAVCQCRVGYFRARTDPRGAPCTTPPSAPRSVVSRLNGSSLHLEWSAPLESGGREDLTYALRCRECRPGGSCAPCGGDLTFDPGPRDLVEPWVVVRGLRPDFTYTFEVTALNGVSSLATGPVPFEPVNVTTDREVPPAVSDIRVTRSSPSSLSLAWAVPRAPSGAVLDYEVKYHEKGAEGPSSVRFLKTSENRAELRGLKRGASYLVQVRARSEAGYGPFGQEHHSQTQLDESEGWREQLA

T2: human EphA7 extracellular region-SEAP-His protein (human, UniProt Q15375 28-555)
T2 construct: extracellular domain; also called hEphA7-SEAP-His
T2 sequence (looked up): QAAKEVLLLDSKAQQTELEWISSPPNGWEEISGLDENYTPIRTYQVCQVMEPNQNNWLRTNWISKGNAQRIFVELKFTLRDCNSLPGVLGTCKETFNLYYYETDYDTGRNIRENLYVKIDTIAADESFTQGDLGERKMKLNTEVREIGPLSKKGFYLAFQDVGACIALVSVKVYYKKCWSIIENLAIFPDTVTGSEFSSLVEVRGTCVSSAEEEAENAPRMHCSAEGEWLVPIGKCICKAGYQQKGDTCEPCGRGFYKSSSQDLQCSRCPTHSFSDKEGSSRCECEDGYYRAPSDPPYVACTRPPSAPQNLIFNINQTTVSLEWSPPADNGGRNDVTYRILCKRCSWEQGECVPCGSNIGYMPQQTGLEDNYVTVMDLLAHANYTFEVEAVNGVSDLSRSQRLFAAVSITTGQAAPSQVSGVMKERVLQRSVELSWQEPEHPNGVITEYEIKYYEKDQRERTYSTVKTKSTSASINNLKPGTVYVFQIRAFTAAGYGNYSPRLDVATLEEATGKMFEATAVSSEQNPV

T3: human EphB3 extracellular region-SEAP-His protein (human, UniProt P54753 34-559)
T3 construct: extracellular domain; also called hEphB3-SEAP-His
T3 sequence (looked up): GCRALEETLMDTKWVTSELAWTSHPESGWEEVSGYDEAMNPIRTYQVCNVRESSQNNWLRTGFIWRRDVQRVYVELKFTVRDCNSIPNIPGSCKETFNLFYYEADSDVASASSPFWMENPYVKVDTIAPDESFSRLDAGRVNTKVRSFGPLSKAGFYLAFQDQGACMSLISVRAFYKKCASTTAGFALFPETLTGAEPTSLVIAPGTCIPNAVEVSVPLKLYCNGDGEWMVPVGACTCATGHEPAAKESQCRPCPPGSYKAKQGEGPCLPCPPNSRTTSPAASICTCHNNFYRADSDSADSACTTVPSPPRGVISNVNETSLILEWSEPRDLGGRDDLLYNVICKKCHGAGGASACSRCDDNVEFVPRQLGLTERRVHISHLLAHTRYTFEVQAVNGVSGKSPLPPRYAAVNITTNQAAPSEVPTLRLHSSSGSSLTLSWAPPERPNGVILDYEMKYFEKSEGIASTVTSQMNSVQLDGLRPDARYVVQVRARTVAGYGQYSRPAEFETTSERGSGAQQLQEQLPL

T4: human EphA3 extracellular region-SEAP-His protein (human, UniProt P29320 21-541)
T4 construct: extracellular domain; also called hEphA3-SEAP-His
T4 sequence (looked up): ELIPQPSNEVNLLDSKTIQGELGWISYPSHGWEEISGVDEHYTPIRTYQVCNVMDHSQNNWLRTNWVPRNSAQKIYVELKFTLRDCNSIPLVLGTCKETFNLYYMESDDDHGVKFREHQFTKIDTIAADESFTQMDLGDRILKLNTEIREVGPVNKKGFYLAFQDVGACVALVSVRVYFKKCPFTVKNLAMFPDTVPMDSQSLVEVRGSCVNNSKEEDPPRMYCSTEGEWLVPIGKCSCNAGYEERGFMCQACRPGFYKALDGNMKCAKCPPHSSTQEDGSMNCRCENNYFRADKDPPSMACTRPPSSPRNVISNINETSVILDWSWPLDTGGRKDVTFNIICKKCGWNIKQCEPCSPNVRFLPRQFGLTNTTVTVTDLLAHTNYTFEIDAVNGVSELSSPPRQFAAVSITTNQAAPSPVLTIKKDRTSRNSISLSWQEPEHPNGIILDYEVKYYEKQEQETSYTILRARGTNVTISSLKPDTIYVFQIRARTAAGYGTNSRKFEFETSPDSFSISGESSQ


Tests used:
Test in all cases: ELISA
[1] = biological target: T5, human EphA5 extracellular region-SEAP-His protein (human, UniProt P54756 25-573)
T5 construct: extracellular domain; also called hEphA5-SEAP-His
T5 sequence (P54756 25-573): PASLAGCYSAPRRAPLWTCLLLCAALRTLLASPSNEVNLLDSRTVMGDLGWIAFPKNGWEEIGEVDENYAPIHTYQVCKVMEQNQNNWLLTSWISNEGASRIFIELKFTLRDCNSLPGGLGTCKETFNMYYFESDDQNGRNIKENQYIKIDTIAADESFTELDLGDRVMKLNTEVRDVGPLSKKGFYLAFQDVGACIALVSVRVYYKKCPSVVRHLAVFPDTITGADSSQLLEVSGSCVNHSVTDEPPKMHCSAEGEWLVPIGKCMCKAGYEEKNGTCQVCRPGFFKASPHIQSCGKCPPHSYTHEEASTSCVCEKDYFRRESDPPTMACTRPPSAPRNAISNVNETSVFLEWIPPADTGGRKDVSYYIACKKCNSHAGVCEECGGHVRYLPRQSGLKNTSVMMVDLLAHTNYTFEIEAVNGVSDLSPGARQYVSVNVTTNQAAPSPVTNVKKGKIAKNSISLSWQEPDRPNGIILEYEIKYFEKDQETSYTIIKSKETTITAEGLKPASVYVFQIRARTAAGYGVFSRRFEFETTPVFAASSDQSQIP

[2] = biological target: T1, human EphB4 extracellular …
[3] = biological target: T2, human EphA7 extracellular …
[4] = biological target: T3, human EphB3 extracellular …
[5] = biological target: T4, human EphA3 extracellular …

| Binder | A450 as % of hEphA4-SEAP-His [1] | A450 as % of hEphA4-SEAP-His [2] | A450 as % of hEphA4-SEAP-His [3] | A450 as % of hEphA4-SEAP-His [4] | A450 as % of hEphA4-SEAP-His [5] |
| --- | --- | --- | --- | --- | --- |
| humanized antibody No. 141 (antibody, human IgG2, human Ig kappa; also called L1-4/HK1) heavy: QVQLVQSGSELKKPGASVKVSCKASGYTFTDYSMHWVRQAPGQGLEWMGWINTETGEPTYADDFKGRFVFSLDTSVSTAYLQISSLKAEDTAVYYCARIPLYYYGSRYWYFDVWGQGTTVTVSSASTKGPSVFPLAPSSRSTSESTAALGCLVKDYFPEPVTVSWNSGALTSGVHTFPAVLQSSGLYSLSSVVTVPSSNFGTQTYTCNVDHKPSNTKVDKTVERKSCVECPPCPAPPAAAPSVFLFPPKPKDTLMISRTPEVTCVVVDVSHEDPEVQFNWYVDGVEVHNAKTKPREEQFNSTFRVVSVLTVVHQDWLNGKEYKCKVSNKGLPAPIEKTISKTKGQPREPQVYTLPPSREEMTKNQVSLTCLVKGFYPSDIAVEWESNGQPENNYKTTPPMLDSDGSFFLYSKLTVDKSRWQQGNVFSCSVMHEALHNHYTQKSLSLSPG light: DIQMTQSPSSLSASVGDRVTITCRASENIYRNLAWYQQKPGKAPKLLVYAATNLADGVPSRFSGSGSGTDYTLTISSLQPEDFATYYCQHFWGTPWTFGQGTKVEIKRTVAAPSVFIFPPSDEQLKSGTASVVCLLNNFYPREAKVQWKVDNALQSGNSQESVTEQDSKDSTYSLSSTLTLSKADYEKHKVYACEVTHQGLSSPVTKSFNRGEC | 5.3% | 5.4% | 5.3% | 5.2% | 5.3% |
| humanized antibody No. 142 (antibody, human IgG2, human Ig kappa; also called L1-4/HK2) heavy: QVQLVQSGSELKKPGASVKVSCKASGYTFTDYSMHWVRQAPGQGLKWMGWINTETGEPTYADDFKGRFVFSLDTSVSTAYLQISSLKAEDTAVYYCARIPLYYYGSRYWYFDVWGQGTTVTVSSASTKGPSVFPLAPSSRSTSESTAALGCLVKDYFPEPVTVSWNSGALTSGVHTFPAVLQSSGLYSLSSVVTVPSSNFGTQTYTCNVDHKPSNTKVDKTVERKSCVECPPCPAPPAAAPSVFLFPPKPKDTLMISRTPEVTCVVVDVSHEDPEVQFNWYVDGVEVHNAKTKPREEQFNSTFRVVSVLTVVHQDWLNGKEYKCKVSNKGLPAPIEKTISKTKGQPREPQVYTLPPSREEMTKNQVSLTCLVKGFYPSDIAVEWESNGQPENNYKTTPPMLDSDGSFFLYSKLTVDKSRWQQGNVFSCSVMHEALHNHYTQKSLSLSPG light: DIQMTQSPSSLSASVGDRVTITCRASENIYRNLAWYQQKPGKAPKLLVYAATNLADGVPSRFSGSGSGTDYTLTISSLQPEDFATYYCQHFWGTPWTFGQGTKVEIKRTVAAPSVFIFPPSDEQLKSGTASVVCLLNNFYPREAKVQWKVDNALQSGNSQESVTEQDSKDSTYSLSSTLTLSKADYEKHKVYACEVTHQGLSSPVTKSFNRGEC | 5.7% | 5.7% | 5.5% | 5.6% | 5.5% |
| humanized antibody No. 144 (antibody, human IgG2, human Ig kappa; also called L1-6/HK1) heavy: QVQLVQSGSELKKPGASVKVSCKASGYTFTDYSMHWVRQAPGQGLEWMGWINTETGEPTYADDFKGRFVFSLDTSVSTAYLQISSLKAEDTAVYYCARIPLYYYGSRYWYFDVWGQGTTVTVSSASTKGPSVFPLAPSSRSTSESTAALGCLVKDYFPEPVTVSWNSGALTSGVHTFPAVLQSSGLYSLSSVVTVPSSNFGTQTYTCNVDHKPSNTKVDKTVERKSCVECPPCPAPPAAAPSVFLFPPKPKDTLMISRTPEVTCVVVDVSHEDPEVQFNWYVDGVEVHNAKTKPREEQFNSTFRVVSVLTVVHQDWLNGKEYKCKVSNKGLPAPIEKTISKTKGQPREPQVYTLPPSREEMTKNQVSLTCLVKGFYPSDIAVEWESNGQPENNYKTTPPMLDSDGSFFLYSKLTVDKSRWQQGNVFSCSVMHEALHNHYTQKSLSLSPG light: DIQMTQSPSSLSASVGDRVTITCRASENIYRNLAWYQQKPGKAPQLLLYAATNLADGVPSRFSGSGSGTDYTLTISSLQPEDFATYYCQHFWGTPWTFGQGTKVEIKRTVAAPSVFIFPPSDEQLKSGTASVVCLLNNFYPREAKVQWKVDNALQSGNSQESVTEQDSKDSTYSLSSTLTLSKADYEKHKVYACEVTHQGLSSPVTKSFNRGEC | 5.6% | 5.7% | 5.6% | 5.8% | 5.7% |
| humanized antibody No. 143 (antibody, human IgG2, human Ig kappa; also called L1-4/HK4) heavy: QIQLVQSGSELKKPGASVKVSCKASGYTFTDYSMHWVRQAPGQGLKWMGWINTETGEPTYADDFKGRFVFSLDTSVSTAYLQISSLKAEDTAVYYCARIPLYYYGSRYWYFDVWGQGTTVTVSSASTKGPSVFPLAPSSRSTSESTAALGCLVKDYFPEPVTVSWNSGALTSGVHTFPAVLQSSGLYSLSSVVTVPSSNFGTQTYTCNVDHKPSNTKVDKTVERKSCVECPPCPAPPAAAPSVFLFPPKPKDTLMISRTPEVTCVVVDVSHEDPEVQFNWYVDGVEVHNAKTKPREEQFNSTFRVVSVLTVVHQDWLNGKEYKCKVSNKGLPAPIEKTISKTKGQPREPQVYTLPPSREEMTKNQVSLTCLVKGFYPSDIAVEWESNGQPENNYKTTPPMLDSDGSFFLYSKLTVDKSRWQQGNVFSCSVMHEALHNHYTQKSLSLSPG light: DIQMTQSPSSLSASVGDRVTITCRASENIYRNLAWYQQKPGKAPKLLVYAATNLADGVPSRFSGSGSGTDYTLTISSLQPEDFATYYCQHFWGTPWTFGQGTKVEIKRTVAAPSVFIFPPSDEQLKSGTASVVCLLNNFYPREAKVQWKVDNALQSGNSQESVTEQDSKDSTYSLSSTLTLSKADYEKHKVYACEVTHQGLSSPVTKSFNRGEC | 6.1% | 5.9% | 5.8% | 5.9% | 5.6% |
